Measured values reported in PMC8902505, “A Continuous Assay Set to Screen and Characterize Novel Protein N-Acetyltransferases Unveils Rice General Control Non-repressible 5-Related N-Acetyltransferase2 Activity” (Frontiers in Plant Science, 2022).

Key:
[1] = target: T1, OsGNAT2 (Oryza sativa, UniProt Q5KQI6); assay: PDH-coupled continuous assay (NADH, […] nm); format: biochemical; conditions: upper bound inferred from no gain between 100 and 500 μM Ac-CoA; peptide substrate; pH 8.0; 30 °C
T1 construct: gene SNAT1

[2] = target: Schizosaccharomyces pombe NatA (SpNaa15 full length + SpNaa10 full length heterodimer) (Schizosaccharomyces pombe)
[3] = target: Schizosaccharomyces pombe NatA (SpNaa15 full length + SpNaa10 full length heterodimer) (Schizosaccharomyces pombe); remark: listed apart in the source
[4] = substrate: CC(=O)SCCNC(=O)CCNC(=O)[C@H](O)C(C)(C)COP(=O)(O)OP(=O)(O)OC[C@H]1O[C@@H](n2cnc3c(N)ncnc32)[C@H](O)[C@@H]1OP(=O)(O)O; assay: purified protein; conditions: extrapolated to saturating reference peptide …, 12.5-500 μM Ac-CoA, pH 8.0, 30 °C

T1 sequence (Q5KQI6 89-254): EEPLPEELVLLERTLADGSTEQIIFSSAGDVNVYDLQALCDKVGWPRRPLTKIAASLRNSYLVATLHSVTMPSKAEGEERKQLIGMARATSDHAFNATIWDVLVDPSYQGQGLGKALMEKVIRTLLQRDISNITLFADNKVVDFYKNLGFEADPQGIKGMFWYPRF

CC(=O)SCCNC(=O)CCNC(=O)[C@H](O)C(C)(C)COP(=O)(O)OP(=O)(O)OC[C@H]1O[C@@H](n2cnc3c(N)ncnc32)[C@H](O)[C@@H]1OP(=O)(O)O [Ac-CoA]
Km [1]: < 0.03 mM

SASEAGVRWGRPVGRRRRP [reference peptide … (canonical NatA substrate)]
Km of the peptide substrate, PDH-coupled acetylation assay, 100 μM Ac-CoA, 30°C [2]: 1 mM

SASEAGVAEQVKKLSVNDS [natural 19-amino acid N-terminal sequence of yeast Ths1p, …]
Km of the peptide substrate, PDH-coupled acetylation assay, 100 μM Ac-CoA, 30°C [2]: 2.3 mM

SASEAGV [peptide SASEAGV]
Km of the peptide substrate, PDH-coupled acetylation assay, 100 μM Ac-CoA, 30°C [2]: 25.5 mM
Km of the peptide substrate, PDH-coupled acetylation assay, 100 μM Ac-CoA, 30°C (value as told in the text) [3]: 19 mM

SASEAGVR [peptide SASEAGVR]
Km of the peptide substrate, PDH-coupled acetylation assay, 100 μM Ac-CoA, 30°C [2]: 14.8 mM
Km of the peptide substrate, PDH-coupled acetylation assay, 100 μM Ac-CoA, 30°C (value as told in the text) [3]: 12 mM

B1: SpNatA (Schizosaccharomyces pombe 972h-) (protein)
chain: MDIRPARISDLTGMQNCNLHNLPENYQLKYYLYHAISWPMLSYVATDPKGRVVGYVLAKMEEEPKDGIPHGHITSVSVMRSYRHLGLAKRLMVQSQRAMVEVYGAKYMSLHVRKSNRAAIHLYRDTLQFDVQGIESKYYADGEDAYAMHKDFSTLKFDTPETNDELAKTVQSLALNN
Km [4]: 0.020 ± 0.003 mM
kcat [4]: 10 s⁻¹
kcat/Km [4]: 508000 ± 89900 M⁻¹ s⁻¹
